Consider eight molecules from US20210198347A1 (Chugai, published 2021).

In test [1] the target is T1, recombinant human C1r2s2 Flag/His tetramer (human, UniProt P09871 16-688; P00736 18-705).
T1 construct: whole entries named; also called hc1r2s2; rC1r2s2
T1 chain 1: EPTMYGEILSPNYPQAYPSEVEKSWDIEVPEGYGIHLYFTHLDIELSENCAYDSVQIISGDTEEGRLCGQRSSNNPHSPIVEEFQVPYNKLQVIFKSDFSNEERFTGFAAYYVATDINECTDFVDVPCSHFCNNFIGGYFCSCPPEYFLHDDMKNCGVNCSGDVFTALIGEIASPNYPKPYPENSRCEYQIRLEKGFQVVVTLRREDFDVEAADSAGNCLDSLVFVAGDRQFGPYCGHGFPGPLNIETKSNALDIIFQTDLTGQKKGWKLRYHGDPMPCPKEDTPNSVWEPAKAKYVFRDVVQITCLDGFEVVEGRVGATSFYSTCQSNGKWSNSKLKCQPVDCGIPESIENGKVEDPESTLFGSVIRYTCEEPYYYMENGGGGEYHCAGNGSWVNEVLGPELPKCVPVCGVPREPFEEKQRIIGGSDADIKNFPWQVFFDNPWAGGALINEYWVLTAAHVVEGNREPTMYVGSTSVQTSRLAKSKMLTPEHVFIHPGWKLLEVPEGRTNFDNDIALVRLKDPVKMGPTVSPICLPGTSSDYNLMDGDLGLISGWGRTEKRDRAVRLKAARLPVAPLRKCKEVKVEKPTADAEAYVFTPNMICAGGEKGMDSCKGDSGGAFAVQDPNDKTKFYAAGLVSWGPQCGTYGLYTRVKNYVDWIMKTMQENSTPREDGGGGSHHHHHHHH
T1 chain 2: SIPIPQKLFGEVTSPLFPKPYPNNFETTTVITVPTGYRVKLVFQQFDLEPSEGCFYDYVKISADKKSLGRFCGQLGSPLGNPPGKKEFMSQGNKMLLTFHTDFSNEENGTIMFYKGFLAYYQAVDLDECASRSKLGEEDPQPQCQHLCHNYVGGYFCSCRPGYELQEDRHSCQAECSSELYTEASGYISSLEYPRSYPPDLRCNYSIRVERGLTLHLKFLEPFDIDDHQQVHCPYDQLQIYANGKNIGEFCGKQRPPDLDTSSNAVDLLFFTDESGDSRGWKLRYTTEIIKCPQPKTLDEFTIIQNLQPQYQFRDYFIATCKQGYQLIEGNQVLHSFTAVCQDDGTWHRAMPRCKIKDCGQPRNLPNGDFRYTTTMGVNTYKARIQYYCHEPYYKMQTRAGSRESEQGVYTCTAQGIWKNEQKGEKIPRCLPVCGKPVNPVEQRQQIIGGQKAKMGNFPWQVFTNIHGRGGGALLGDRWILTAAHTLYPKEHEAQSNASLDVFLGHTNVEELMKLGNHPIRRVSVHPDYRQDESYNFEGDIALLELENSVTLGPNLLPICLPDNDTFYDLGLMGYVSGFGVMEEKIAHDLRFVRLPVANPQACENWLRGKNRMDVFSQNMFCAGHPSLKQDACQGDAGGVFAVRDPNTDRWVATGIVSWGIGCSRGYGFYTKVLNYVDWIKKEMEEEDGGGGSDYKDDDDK
Nature of the test: SPR displacement (37 degrees C, pH 7.4): C1r2s2 captured by anti-His, C1q 100 nM pre-bound, antibody 500 nM at 10 micro L/min; time from antibody injection until the antibody sensorgram falls below the buffer sensorgram; competitor native human C1q. As for the experimental part:
An anti-His antibody (GE-Healthcare) is immobilized onto all flow cells of a CM4 sensor chip using an amine coupling kit (GE Healthcare). The antibodies, recombinant human C1r2s2 Flag/His tetramer and native human C1q (Comptech A099) are prepared in pH 7.4 buffer (20 mM ACES, 150 mM NaCl, 1.2 mM CaCl₂, 1 mg/mL BSA (IgG-free), 1 mg/mL CMD, 0.05% Tween 20, 0.005% NaN₃, pH 7.4). Recombinant human C1r2s2 Flag/His tetramer is first captured onto the sensor surface by the anti-His antibody (“hc1r2s2”). The capture levels are aimed at 200 resonance unit (RU). Native human C1q is injected at 100 nM to have a capture of 200 RU (“hc1q”), followed by antibody injection at 500 nM at 10 micro L/min for 1200 sec immediately. The sensor surface is regenerated each cycle with 10 mM Glycine-HCl (pH 1.5). For antibodies with the C1q displacement function, the response unit of Sensorgram 2 (in the presence of C1r2s2, C1q, and antibody) is lower than the response unit in Sensorgram 1 (in the presence of C1r2s2, C1q, and buffer, but in the absence of antibody) after the time point where Sensorgrams 1 and 2 cross (“time point of crossover”).
The time point of crossover is identified by subtraction of the buffer response (Sensorgram 1) from the antibody (Ab) response (Sensorgram 2), and referring to the time point when the differential value changes from positive to negative (Table 5).

Test [2] deals with T2, recombinant human C1r CCP1-CCP2-SP-FLAG (human, UniProt P00736 307-705).
T2 construct: Truncated protein lacking the CUB1-EGF-CUB2 domain of C1r; also called human C1r CCP1-CCP2-SP I307-D705
T2 chain: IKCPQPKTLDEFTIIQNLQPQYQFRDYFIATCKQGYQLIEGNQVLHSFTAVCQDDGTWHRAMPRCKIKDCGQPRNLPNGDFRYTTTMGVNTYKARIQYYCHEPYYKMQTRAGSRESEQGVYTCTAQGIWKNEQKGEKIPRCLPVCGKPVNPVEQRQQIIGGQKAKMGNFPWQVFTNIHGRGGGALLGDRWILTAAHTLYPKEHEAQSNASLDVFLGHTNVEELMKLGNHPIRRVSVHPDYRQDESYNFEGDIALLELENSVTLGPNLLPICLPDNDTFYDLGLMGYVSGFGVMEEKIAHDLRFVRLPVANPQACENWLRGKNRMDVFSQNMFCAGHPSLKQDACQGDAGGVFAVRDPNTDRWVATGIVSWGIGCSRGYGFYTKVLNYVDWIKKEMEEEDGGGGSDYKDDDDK
Nature of the test: SPR (BIACORE T200, 37 degrees C, pH 7.4, 1.2 mM CaCl2), antibody captured by protein A/G.

Where a chain is given by its changes, count along the chain named.

B1: COR0278bb-SG1148 (antibody, human IgG1, kappa, V domains shown)
VH: QSLEESGGRLVTPGTPLTLTCTASGFSLSSYDMTWVRQAPGKGLEWIGIIYTLGSAYYASWAKGRFTISRTSTTVDLKMTSPTTEDTATYFCARGGDSYGAVDTAFDLWGPGTLVTVSS
VL: AQVLTQTPSPVSAAVGGTVTISCQSSPSVYSNYLSWYQQKPGQPPKLLIYRASRLASGVPSRFKGSGSGTQFTLTISEVQCDDAATYYCQGYFGNGINAFGGGTKVEIKR
notes: Anti-C1r antibody
Take B1: in test [1], the “Time point of crossover (post-injection)” value worked out at 218 s. Further, the binding result in test [2] is “no binding (tested: 50 nM)”.

B2: COR0058bb-SG1148 (antibody, human IgG1, kappa, V domains shown)
VH: QSVEESGGRLVTPGTPLTLTCTASGFDISNYNMQWVRQSPGKGLEWIGIIWSGGYTDYANWAKGRFTISATSTTVDLKSTSPTTEDTATYFCARQGANFGDYTVDLWGPGTLVTVSS
VL: AYDMTQTPASVEVAVGGTVTIKCQASQSIRSSLAWYQQKPGQRPKLLIYRASTLASGVSSRFKGSGSGTQFTLTISGVECADAATYYCQQGYSNINVDNTFGGGTKVEIKR
notes: Anti-C1r antibody
As for B2, the “Time point of crossover (post-injection)” value in test [1] is 235 s. In test [2], the binding result was “no binding (tested: 50 nM)”.

B3: COR0011bb-SG1148 (antibody, human IgG1, kappa, V domains shown)
VH: QSLEESGGRLVTPGTPLTLTCTASGFTFSGYYMCWVRQTPGKGLEYIGIIASSGNTYYANWAKGRFTISKTSSTTVDLKMTSLTTEDTATYFCAKPESDYVNGMGLWGPGTLVTVSS
VL: DIVMTQTPASVSDPVGGTVTIKCQASQSIYNLLSWYQQKPGQRPKLLIYDASKLASGVPSRFKGSGYGTDFTLTISDLGCADAATYYCQSNYGYSRTDDTFFYGFGGGTKVEIKR
notes: Anti-C1r antibody
B3: the “Time point of crossover (post-injection)” value in test [1] came out at 613 s. In test [2], the binding result is given as “no binding (tested: 50 nM)”.

B4: COR0212bb-SG1148 (antibody, human IgG1, kappa, V domains shown)
VH: QEQLKESGGGLVTPGGTLTLTCTASGFSLSSYDMSWVRQAPGKGLDWIGIINTGGSAYYATWAKGRFTISKTSTTVDLKITSPTTEDTATYFCGRKINDAFDPWGPGTLVTVSS
VL: AQVLTQTPFSVSAAVGGTVTINCQASESISSNLAWYQQKPGQPPKLLIYDASDLASGVPSRFKGSGSGKQFTLTISGVQCDDAATYFCQHGWIYDTIDSNCFGGGTKVEIKR
notes: Anti-C1r antibody
Take B4: the “Time point of crossover (post-injection)” value in test [1] stood at 432 s. For the same molecule, the binding result in test [2] is “no binding (tested: 50 nM)”.

B5: COR0208cc-SG1148 (antibody, human IgG1, kappa, V domains shown)
VH: QSVEESGGRLVTPGTPLTLTCTVSGFSLSNYYMNWVRQAPGKGLEWIGIIASDDNTWYASWAKGRFTISKTSTTVDLKITSPTTEDTATYFCARDLDVGYGSGWYDLWGQGTLVTVSS
VL: AAVLTQTPSPVSVAVGGTVTINCQASQSVYNNNYLAWYQQEPGHRPKLLIYRASKLASGVPSRFSGSGSGTQFTLTISGVQCDDAATYYCLGGYDDFTDTTFGGGTKVEIKR
notes: Anti-C1r antibody; also called COR208; COR208cc(-SG1148)
Take B5: in test [1], the “Time point of crossover (post-injection)” value was determined as 197 s. The binding result in test [2] is on record as “no binding (tested: 50 nM)”.

B6: COR0205gg-SG1148 (antibody, human IgG1, kappa, V domains shown)
VH: QSLEESGGGLFKPTDTLTLTCTVSGFSLSSNAMSWVRQAPGKGLEYIGIIYLTGVTYYATWAKGRFTISKTSTTVDLKITSPTTEDTATYFCAGGEFSLWGPGTLVTVSS
VL: DIIMTQTPASVEAAVGGTVTIKCQASQGIDNYFSWHQQKPGQPPKLLIYKASTLASGVSSRFKGSGSGTEFTLTISDLECDDAATYYCQCTYGYNINDNYGNAFGGGTKVEIKR
notes: Anti-C1r antibody; also called COR205gg(-SG1148)
Take B6: the “Time point of crossover (post-injection)” value in test [1] worked out at 216 s. Further, in test [2], the binding result is “no binding (tested: 50 nM)”.

B7: COR0067ff-SG1148 (antibody, human IgG1, kappa, V domains shown)
VH: QSLEESGGGLVQPEGSLTLTCKASGIDFSSNAMCWVRQAPGKGLEWIGCIYTGSTTIWYASWAKGRFTISKTSSTTVTLQLNSLTVADTATYFCARRDSSSGYAFKLWGPGTLVTVSS
VL: DIVMTQTPSSVSAAVGGTVTIKCQASENIYSNLAWYQQKSGQPPNLLIYGASTLESGVPSRFKGSGSGTEFTLTISDLECADAAIYYCQCTYDDSSTFGGGTKVEIKR
notes: Anti-C1r antibody
On to B7, for which the “Time point of crossover (post-injection)” value in test [1] amounted to 85 s. For the same molecule, in test [2], the binding result was “no binding (tested: 50 nM)”.

B8: COR0338gg-SG1148 (antibody, human IgG1, kappa, V domains shown)
VH: B7 VH with G48A, S61T, D98A
VL: B7 VL with I2V, S9F, N28S, S40P, A81D
notes: Anti-C1r antibody
With B8, the “Time point of crossover (post-injection)” value in test [1] is 101 s. Besides, in test [2], the binding result was “no binding (tested: 50 nM)”.
